Experimental data published in article PMC7943604.

Key:
[1] = target: COPY^o2 (Atto532-stathmin-Atto647N); assay: stopped-flow fluorescence (sensitized emission of the FRET sensor); COPY^o2 or phosphorylated COPY^o2 constant at 200 nM, tubulin titrated; dissociation at 200 nM COPY^o2 and 4 µM tubulin by displacement with 60 µM unlabeled stathmin; 25 °C; 80 mM PIPES pH 6.8, 75 mM KCl, 2 mM MgCl2, 20 mM β-mercaptoethanol, 60 µM GTP
phosphorylated COPY^o2 = assay: as above

Substance: tubulin (αβ-heterodimer) (from UniProt P02550 1-451; P02554 1-445) (complex)
- KD, high affinity site [1]: 0.03 µM
- KD, low-affinity site [1]: 2 µM
- koff, high affinity site [1]: 0.048 s⁻¹
- koff, low-affinity site [1]: 1.86 s⁻¹
- kon, high affinity site [1]: 1.6e+06 M⁻¹ s⁻¹
- kon, low-affinity site [1]: 900000 M⁻¹ s⁻¹
- stoichiometry N [1]: 2
- KD, high affinity site (phosphorylated COPY^o2): 610 µM
- KD, low-affinity site (phosphorylated COPY^o2): 12 µM
- koff, high affinity site (phosphorylated COPY^o2): 8 s⁻¹
- koff, low-affinity site (phosphorylated COPY^o2): 2.3 s⁻¹
- kon, high affinity site (phosphorylated COPY^o2): 12800 M⁻¹ s⁻¹
- kon, low-affinity site (phosphorylated COPY^o2): 170000 M⁻¹ s⁻¹
